In publication PMC3531502 (PLoS Biology, 2012):

B2: HET-S (full-length, residues 1-289) (natural protein, Podospora anserina, UniProt B2ACC7 1-289, looked up)
chain: MSEPFEIVAGALGVAGLFNNCVACFEYVQLGRHFGRDYERCQLRLDIAKVRLSRWGEAVQINDDPRFHSSAPIDKSVQLAKSIVEEILLLFESAQKTSKRYELVADQQDLVVFEDKDMKPIGRALHRRLKDLVSRRQKQTSLAKKTAWALYDGKSLEKIVDQVAGFVDELEKAFPIEAVCHKLAENEIEEVEDEASLTILKDAAGGIDAAMSDAAAQKIDAIVGRNSAKDIRTEKRARVQLGNVVTAAALHGEIRISDQTTNSVETVVGKGESKVLIGNEYGGKGFWDN
notes: also called HET-S protein; recombinant HET-S

Key:
[1] = target: B2; experiment: solid-state NMR (PAIN 13C-15N pol); conditions: both partners purified
[2] = target: the molecule itself; experiment: solid-state NMR (PAIN 13C-15N pol)
HET-s (full-length) = target: T1, HET-s (full-length) (Podospora anserina, UniProt Q03689 1-289); experiment: solid-state NMR (NCA 2D and 3D co); conditions: both partners purified
T1 construct: also called unlabeled monomeric full-length HET-s; HET-s prion
T1 sequence (looked up): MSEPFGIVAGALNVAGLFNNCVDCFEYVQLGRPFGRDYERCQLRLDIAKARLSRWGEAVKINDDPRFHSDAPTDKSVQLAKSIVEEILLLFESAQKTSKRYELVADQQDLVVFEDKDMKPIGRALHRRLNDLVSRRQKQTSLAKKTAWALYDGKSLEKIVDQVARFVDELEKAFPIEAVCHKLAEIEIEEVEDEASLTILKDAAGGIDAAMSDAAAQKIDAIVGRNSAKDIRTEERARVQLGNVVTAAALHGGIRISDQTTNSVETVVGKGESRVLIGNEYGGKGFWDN

[3] = target: the molecule itself; experiment: solid-state NMR (NCA 2D and 3D co)

B1: HET-s(218-289), prion-forming domain of HET-s (domain or fragment, Podospora anserina, UniProt Q03689 218-289, looked up)
chain: KIDAIVGRNSAKDIRTEERARVQLGNVVTAAALHGGIRISDQTTNSVETVVGKGESRVLIGNEYGGKGFWDN
notes: also called HET-s PFD; HET-s(218-289) amyloid seeds
B1: binds [1]; binds [2].

B2: binds (HET-s (full-length)); binds [3].
